Experimental findings from the supplement of paper PMC6755084 are described below.

First the molecules themselves.
B1: minF1; a variant is named by its letters at N, in order (parent)
chain: GAGACCGCAACTGAAAAGTTGTTATCAGAAATGNNNGGNTNNNTTTCTGCACGTAGAAGCAAAAGGC
B2: minF1; a variant is named by its letters at N, in order (parent)
chain: GAGACCGCAACTGAAAAGTTGTTANNNNAANGNNNGGTTGAATTTCTGCACGTAGAAGCAAAAGGC

One data set covers variants of B1. The data set is described as follows: fraction ligated after 30 min (ligated reads / total reads); higher = more ligase activity. The following applies: with F1*subA RNA substrate (template-directed ligation), 42 °C. The method, boiled down:
(§1)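 RNAs for minimized ligase ribozyme variants were transcribed with T7 from PCR-amplified oligo-pool templates and purified on gels. Ligated and unligated species were resolved on gels, converted to cDNA with barcoded primers, and read on a MiSeq with core bases filtered at quality ≥30. Fraction ligated per variant is the ratio of ligated reads to total reads.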
As to GATGTGC, the fraction ligated was found to be 0.00735.
GATGTGG: the fraction ligated was determined as 0.00509.
The same measure, in the same setting: then GATGTGT, with 0.00586; and GATGTGA, with 0.844.
In the case of GAGTGAA, the fraction ligated was 0.00382.
Same read-out and setting: then ATGTGAA T32G, with 0.0137; and GATGTCA, with 0.0146; and GATGTCG, with 0.00256.
GATGTCT: the fraction ligated is 0.00139.
The same measure, in the same setting: under GATGTCC stands 0.00223; under ATGTGAA, 0.0281; under ATGTGAA T25C C26A A27G G28A A31T T32G, 0.0163.
Same read-out and setting: under GATGTAT stands 0.00414.
Consider GATGTAA, for which the fraction ligated is 0.175.
Same read-out and setting: under GATGTAG stands 0.00461.
The same measure, in the same setting: under GATGTAC stands 0.00239; under ATGTGAA G28A A31T T32G, 0.52; under GATGTTG, 0.00218.
The same measure, in the same setting: under GATGTTC stands 0.00331.
Consider GATGTTT, for which the fraction ligated was found to be 0.000955.
For the variant GATGTTA, the fraction ligated worked out at 0.0473.
The same measure, in the same setting: then ATGTGAA A27G G28A A31T T32G, with 0.733; and GTGTGAA, with 0.0136.
On the same count and under the same terms, then ATGTGAA A24T T25C C26A A27G G28A A31T T32G, with 0.0261; and GATTGAA, with 0.023; and ATGTGAA T23A A24T T25C C26A A27G G28A A31T T32G, with 0.228.
Regarding ATGTGAA A31T T32G, the fraction ligated amounted to 0.65.
In the case of ATGTGAA C26A A27G G28A A31T T32G, the fraction ligated turned out to be 0.0728.

In a further data set the parent is B2. The data set is described as above. The following applies: with F1*subA RNA substrate (template-directed ligation), 42 °C. The method, boiled down:
as §1
Take TCAGAGGT G32T T38G G40T: the fraction ligated turned out to be 0.00529.
Still for that read-out and setting: then TCAGAGGT G32T T38G G40T A41G, with 0.0316; and TAAAGATG A30T, with 0.021.
Same read-out and setting: then TCAGAGAT G32T, with 0.00472; and TAGAGATG A30T, with 0.0449; and TCAGAGAT T38G G40T A41G, with 0.0517.
Still for that read-out and setting: under TCAGTGAT T38G G40T A41G stands 0.392.
TCAGAGGT G32T: the fraction ligated was found to be 0.00299.
The same measure, in the same setting: under CAGAGATG A24T A30T stands 0.0149; under TCAGAATG, 0.00903.
Still for that read-out and setting: under CAGATGAT A24T T38G G40T stands 0.00536; under TCAAGATG, 0.00472.
For the variant TCAGTGAT, the fraction ligated was 0.0235.
Still for that read-out and setting: then TCAGTGAG, with 0.00523; and TAGATATG, with 0.00408.
For the variant CAGATGAG A24T, the fraction ligated was 0.00352.
On to CAGATGTG T23A A24T, for which the fraction ligated was determined as 0.00275.
With AGAAGATG A24C A30T, the fraction ligated was found to be 0.0111.
On the same count and under the same terms, under TCGAGATG stands 0.00545; under TCGATGAT T38G G40T A41G, 0.576.
The same measure, in the same setting: under CAAAGATG A24T A30T stands 0.0148; under CAGATGAT T23A A24T T38G G40T A41G, 0.0927; under TCAGTGAT T38G G40T, 0.0275.
On the same count and under the same terms, under TGAAGATG A30T stands 0.054; under TCAGTGTG, 0.00427.
On to CAGATATG, for which the fraction ligated was determined as 0.00456.
Turning to TAGAGATG, the fraction ligated was found to be 0.00517.
The same measure, in the same setting: then TCAATGAT, with 0.0159; and TCAATGAG, with 0.00836.
Same read-out and setting: under TAGATGTG stands 0.00059; under CAGATGAG T23A A24T, 0.00151.
Still for that read-out and setting: then AGAAGATG A24T A30T, with 0.00936; and TCGATGTG, with 0.0076.
As to TCAGGATG A30T, the fraction ligated is 0.163.
Still for that read-out and setting: then TAGATGAT T38G G40T A41G, with 0.025; and AGAAGATG A30T, with 0.0065; and TCAGAGAT G32T T38G G40T A41G, with 0.0724.
The same measure, in the same setting: then TAGATGAT T38G G40T, with 0.00516; and TCAGAGAT, with 0.00503; and TCAGAGAG, with 0.00214.
Still for that read-out and setting: then CAGAGATG, with 0.00233; and TCGATATG, with 0.0107; and TCAATGAT T38G G40T A41G, with 0.302.
In the case of TCAGAGGA G32T T38G G40T, the fraction ligated was 0.00434.
Same read-out and setting: under TCAGGATG stands 0.00705; under CAGAGATG T23A A24T A30T, 0.0668; under CGAAGATG A30T, 0.0292.
Same read-out and setting: then CAAAGATG T23A A24T A30T, with 0.0275.
Still for that read-out and setting: under CAGATATG T23A A24T stands 0.00616; under CAGATGAT A24T T38G G40T A41G, 0.0273; under CAGATGAT T23A A24T T38G G40T, 0.0102.
Turning to TCAGAGGA G32T G36T T38G T39G G40T A41T A42G, the fraction ligated turned out to be 0.00154.
Same read-out and setting: under TCAGAGGA G32T G36T T38G T39G G40T A41T A42C stands 0.00198; under TCAGAGGA G32T G36T T38G T39G G40T A41T A42T, 0.00119; under TCAGAGGA G32T T38G G40T A41G, 0.00714.
